Assay: soluble on expression in E. coli; label from the status in PepcDB or PDB records

| Sequence | soluble on expression in E. coli |
| --- | --- |
| MGSDKIHHHHHHMSSDPTSGAAITVEGLKKVFRIYERPRDRILQLILPGKRKFYREFQALDDVSFTVQKGQAVGIIGRNGSGKSTLLQMICGILHPTAGKVSCSGRVAALLELGAGFNPDFTGRENVYMNATLLGLTTAAVDERMDDILAFAEIGDFIDHPVKTYSSGMFVRLAFAVMAHVDAEILIIDEALAVGDAAFGQKCMRFLRRFRETGTILFVSHDTAAVIGLCDRAVWLDRGKMIIEGDAKTVCEAYYGHLFGGTVETPPEKTVEAITPSPAPEGPRPKVRAEDWVDGRREWINHSSLRNDIEVFTFDPSGTDFGAGGAEIEDVRLTDDDGHPYAWIVGGEPTRLRVTVRVRDELRSPIIGFFVKDRLGQTLFGDNTFMNEKKLSKPALPGQILEANFRFPMPILPPGTYSIAVAVADGTQTDHVQHHWLHDAVMVKSHVSHATAGLVGIPMFEVRFECHDPVASPSSSMDKVGIVD | not soluble |
| MAESRRKYYFPDVTDEQWNDWHWQVLNRIETLDQLKKYVTLTAEEEEGVKESLKVLRMAITPYYLSLIDPENPNCPIRKQAIPTHQELVRAPEDQVDPLSEDEDSPVPGLTHRYPDRVLFLITDKCSMYCRHCTRRRFAGQKDASSPSERIDRCIDYIANTPTVRDVLLSGGDALLVSDERLEYILKRLREIPHVEIVRIGSRTPVVLPQRITPQLVDMLKKYHPVWLNTHFNHPNEVTEEAVEACERMANAGIPLGNQTVLLRGINDCTHVMKRLVHLLVKMRVRPYYIYVCDLSLGIGHFRTPVSKGIEIIENLRGHTSGYAVPTFVVDAPGGGGKIPVMPNYVVSQSPRHVVLRNYEGVITTYTEPENYHEECDCEDCRAGKHKEGVAALSGGQQLAIEPSDLARKKRKFDKN | soluble |
| MAEQISHKKSLRVSSLNKDRRLLLREFYNLENEPNKGRQEARIGEKASEAHSGEEQVTDVNIDTEANTEKPVKDDELSATEEDLKEGSEDAEEEIKNLPFKRLVQIHNKLLGKETETNNSIKNTIYENYYDLIKVNDLLKEITNANEDQINKLKQTVESLIKEL | soluble |
| MNIGNITISVIIPVYNASVTLPHCLESLHKQTYRNLELLFVDDCSTDESLYILTSYAEQFAEIDFTIRILQHERNRGVAAARNTALKCATGDYIYYVDADDSIEPHTLECLVNEINHKGLDIVGHEWYLTFNSNARYMKQPAYTTSVEALRKMMGGVMRWNLWLFLVRRSLYVENDIRFTEGLNMGEDMMVMMKLFICAGKVGIVHRPFYHYRQSNPESLTKIYSQEHIIQVANNVYEVEKYVNASAYADSLIEFIPFLKLNIKLPLLITDDKSHYEQWLECFPEANCYVMNNKLLPLRTRIIQWMAVKRYFILLRLYYRTVFKLVYGIIYKLEHHHHHH | not soluble |
| MSWQTYVDEHLMCDIDGQGEELAASAIVGHDGSVWAQSSSFPQFKPQEITGIMKDFEEPGHLAPTGLHLGGIKYMVIQGEAGAVIRGKKGSGGITIKKTGQALVFGIYEEPVTPGQCNMVVERLGDYLIDQGL | soluble |
| MGSDKIHHHHHHLVPPDYQDPPSDFTAEVEAGLQLNTGNNESKNFNSRAYLTYDTPKTRQEGTFKVYYAADGTETTSEKYDLFLQSSYKLNRGYVFGRGEFTWDDFGSFTEIRTLSTGYGFDLIKSYKTKLSLEAGPGYRYDMPRATLSDPEPRANREVILRTAARYSVKLQEYTSLNADVTAETGLDNNTLTLDMSYKNTFLQDWAFKIGMNVRYTQDVPQDSQRTDTTTTFNLLYTFQ | not soluble |
| GPGSMASKKQADGSKDIGDAAWREKLTTQEYRVLRQKATDPPFGAYNTHFETGTYHCAGCGTLLYKSSMKFPCECGWPAFFDCVPLAVREEPDSDGVRTEILCNACGGHLGHVFRGEGFNNPPPNERHCVNGTAIRFQSEK | soluble |
| MKFSESVPLYKQPLSIPAEQLPQPDLNRNLPLSKYFLMMKTPEIGFQKAEVRDVLLRKVVLNEIEKIPAIWNCKNTYNANKLYPEVAVQVYRRTGTLLHTKMVQMVFKTAKDSLRNRLRDAISRKGLNEVDTEAHLLEWEYYPFVRFYREVSEGWEDRMRKTKQLEKREPAGGVGIVGDDENSMDVEEEPYENPDIIWDDVADPESPTTSMSSTLTSTQGTFTDYHPEEPYHNPEPPLIHPTLEYAAMKTASLQRNQQNKHVMEVRHGSETRTVVVMPTEPPRQQLNAPDFAEEMLQVTYQATRIAREQPERVKLLRKALFDTVLAFDQKEYNCVADLYRDLAEKSSR | not soluble |
| VPEKFKLSTALMDVLGIEVETRPRIIAAIWHYVKARKLQNPNDPSFFNCDAALQKVFGEEKLKFTMVSQKISHHLSPPPP | soluble |
| MSLKTGTTLEKLAQVKTVAFDKTGTITQGKLVVDQVVPQGSQSADRLLQLAASAEQHSSHVLAQSLVAANRLPLLTATNVTETTAQGVVATINGQQVRAGKAAFVTSESITKPDQTAVYVAVDDVYQGYVSFNDRVRPEAATTMTRLRQAGVAHLMMISGDRQPIAEQIAQEVGLDQVHAECLPAGKIAVLDQLAANQRPVAMVGDGINDAPSLATADVGIAMGAHGATAASESADAVVLKDDLTRVSTARVIAQDTMRVARQSEGHHHHHH | soluble |
| VLKQGYMMKKGHRRKNWTERWFVLKPNIISYYVSEDLKDKKGDILLDENCCVESLPDKDGKKCLFLVKCFDKTFEISASDKKKKQEWIQAIHSTIHLLKLGS | soluble |
| MSLQYFKVRDEIRSMVSDSVDEIVDGVSKTTAEVINGRKSIAQYATSLIENNPEPDNVRTIISQPLIKNTFLLVGFGLEKDGSNINNDPSWNPGPTWDPRVRPWYKDAKNAGKLVITAPYADSASGEILVSVATPVKDSATGQFLGSIFYDVSLAELAELVNEVKLFDAGYVFIVSEDGTTIAHPKKEFNGKPMSEFLGESKINVDTHQVIINGKPYAVSFSDVEGEDWYVGVVIDEEIAYAALDELRRSEGHHHHHH | soluble |
| MAHHHHHHMCSDVKFSERLTTSPAVVTGFLSPTLRKVMKATMKNSDFNDNTNNSNNMNMFQNLPATLELNPSHTIVTSIYHLKNTNQEVAKLLVQQLYDNACIAAGILEDPRSLLSKLNELLLLTARYAYHYEKKDIQENTKDQPIDVKDNTMAIDNIVNTKENNTNDDSVMKEAQSSNL | soluble |
| MSTSAGSSGAAASEPTTAKSLTYSETMNDLRKGSLFGRQKESLATTDGGPQPSSLDDKSQQFKNPIESDKPGPSTEPGRSAKIEQEAPAPTLKKSETPPAFGLSGVVKKVPSVYFPIFNKLGVKIPGFLPSLRETKINAPHIVYDVRRLRLLQKRQRPIKQLWLRLQFQLRFQMQLLKAQTKSSRVPDNASAVMWLHYIEVIEDHCTADC | not soluble |
| MGYNKPAAWKPLDRTDWDVSFSYAYGYDEAQFGGRLAVDGDVSTTWFTWGVVSAGECWWATTLPAPTHLTGFSLTRQTTFGSSYNVREAKVKVKKEGDTEWTEAGLFRFGSFKGNDPQYAVFIPAVENVKEFRIDIVSPADFTGFAELDLYQLEHHHHHH | soluble |
| DATWLPPSRWDDGIPGLMLDYNLNGTVSRNYQGGDSHQFSYNGTVGGNLGPWRLRADYQGSQEQSRYNGEKTTNRNFTWSRFYLFRAIPRWRANLTLGENNINSDIFRSWSYTGASLESDDRMLPPRLRGYAPQITGIAETNARVVVSQQGRVLYDSMVPAGPFSIQDLDSSVRGRLDVEVIEQNGRKKTFQVDTASVPYLTRPGQVRYKLVSGRSRGYGHETEGPVFATGEASWGLSNQWSLYGGAVLAGDYNALAAGAGWDLGVPGTLSADITQSVARIEGERTFQGKSWRLSYSKRFDNADADITFAGYRFSERNYMTMEQYLNARYRNDYSSREKEMYTVTLNKNVADWNTSFNLQYSRQTYWDIRKTDYYTVSVNRYFNVFGLQGVAVGLSASRSKYLGRDNDSAYLRISVPLGTGTASYSGSMSNDRYVNMAGYTDTFNDGLDSYSLNAGLNSGGGLTSQRQINAYYSHRSPLANLSANIASLQKGYTSFGVSASGGATITGKGALVPR | soluble |
| MTESTTSSPHDAVFKTFIFTPETARDFLEIHLPEPLRKLCNLQTLRLEPTSFIEKSLRAYYSDVLWSVETSDGDGYIYCVIEHQSSAEKNMAFRPMRYATAAMQSHLDKGYDRVPLVVPLLFYHGETSPYPYSLNWLDEFDDPQLARQLYTEAFPLVDITIVPDDEIMQHRRIALLELIQKHIRDHDLIGMVDRITTLLVRGFTNDSQLQTLFNYLLQCGDTSRFTRFIQEIAERSPLQKERLMTIAERLRQEGHQIGWQEGKLVGLQQGKLEGLQEGMHEQAIKIALRMLEQGIDRDQVLAATQLSEADLAANNH | not soluble |
| MGSDKIHHHHHHMPYPKKVTIKEVGPRDGLQNEPVWIATEDKITWINQLSRTGLSYIEITSFVHPKWIPALRDAIDVAKGIDREKGVTYAALVPNQRGLENALEGGINEACVFMSASETHNRKNINKSTSESLHILKQVNNDAQKANLTTRAYLSTVFGCPYEKDVPIEQVIRLSEALFEFGISELSLGDTIGAANPAQVETVLEALLARFPANQIALHFHDTRGTALANMVTALQMGITVFDGSAGGLGGCPYAPGSSGNAATEDIVYMLEQMDIKTNVKLEKLLSAAKWIEEKMGKPLPSRNLQVFKSS | not soluble |
| MSEPIRVLVTGAAGQIAYSLLYSIGNGSVFGKDQPIILVLLDITPMMGVLDGVLMELQDCALPLLKDVIATDKEDVAFKDLDVAILVGSMPRREGMERKDLLKANVKIFKSQGAALDKYAKKSVKVIVVGNPANTNCLTASKSAPSIPKENFSCLTRLDHNRAKAQIALKLGVTANDVKNVIIWGNHSSTQYPDVNHAKVKLQGKEVGVYEALKDDSWLKGEFVTTVQQRGAAVIKARKLSSAMSAAKAICDHVRDIWFGTPEGEFVSMGVISDGNSYGVPDDLLYSFPVVIKNKTWKFVEGLPINDFSREKMDLTAKELTEEKESAFEFLSSA | soluble |
| MGSDKIHHHHHHMAVPLPVSARKDTVVPVLMYHDVSNHFHDPFTISPALFAAHMEWLHAAGYRAVTVGEALAGRGATAGKMVVITFDDGYASFLDYVHPLLLQYGFSAAISVIGSHVGTWLERDGRRPMLSWDEYRYLAARRVEVGCHAYHLHAIERLRHASADELAEDLELFQKTMAREMGRRATLLAWPYGIYTSERVQIARQAGFVHILTSNEGYVDDGTDPGAIPRLNIDNRLDLVSFSNYLRGE | not soluble |
| MDLPVMPPVKPMLAKSVAKIPPDMQYEAKWDGFRAIVFRDGTEVELGSRTGKPLTRYFPELVEALRDRLPERCVIDGEIVIARDGRLDFDALTERIHPAESRVRMLAEKTPASFVAFDLLALADDSLLDTPLTERRALLESALSGVTAPVHVAPATTDREVAEQWFEQYEGAGLDGVIAKPLTLRYRQDERAMFKVKHERTADVVVAGYRLHKSGPVVGSLLLGLYDDRGALQHVGVSAAFPMKRRAELVEELEPLRMEDAAGHPWAAWSNEAAHETARLPGAPSRWSGKKDLSWVPLRPERVAEVAYDHMENGARFRHTARFRRWRPDRTPESCTYAQLEEPVSYDLTEILGSRGLEHHHHHH | soluble |
| MKIFLDSAITTDIQDRLATEIIDGVTTNPTLIKKSNEDPDVVYKELYDMRVKDISIEVRGDTAQELAANGILYGRKYGEVATIKLPCTVEGIKACKKLSILGHKTNMTLVFSVSQAILCAKAGATYVSPFVGRLDQIGEDGIQLIRDISRVYCVSGVKTQILAASIRSPKQAEDAYLAGADICTLPVKVFDQMFKHTLTDDGLKQFAIDFGINF | not soluble |

Source: the DeepSol protein solubility set
